Results on one substance are retold here after patent US20160058886A1.

Assay [1] has as its target nucleolin at the surface of MDA-MB-231 and MDA-MB-435S breast cancer cells (UniProt P19338). Kind of assay: flow cytometry, rhodamine geometric mean fluorescence, MDA-MB-435S cells. On the technique in general: Flow cytometry measures light scatter and fluorescence of single cells or particles in a stream.
Assay [2] has the same target. The assay can be described thus: flow cytometry, rhodamine geometric mean fluorescence, MDA-MB-231 cells.

UniProt P19338, sequence (P19338 2-710 limits assumed): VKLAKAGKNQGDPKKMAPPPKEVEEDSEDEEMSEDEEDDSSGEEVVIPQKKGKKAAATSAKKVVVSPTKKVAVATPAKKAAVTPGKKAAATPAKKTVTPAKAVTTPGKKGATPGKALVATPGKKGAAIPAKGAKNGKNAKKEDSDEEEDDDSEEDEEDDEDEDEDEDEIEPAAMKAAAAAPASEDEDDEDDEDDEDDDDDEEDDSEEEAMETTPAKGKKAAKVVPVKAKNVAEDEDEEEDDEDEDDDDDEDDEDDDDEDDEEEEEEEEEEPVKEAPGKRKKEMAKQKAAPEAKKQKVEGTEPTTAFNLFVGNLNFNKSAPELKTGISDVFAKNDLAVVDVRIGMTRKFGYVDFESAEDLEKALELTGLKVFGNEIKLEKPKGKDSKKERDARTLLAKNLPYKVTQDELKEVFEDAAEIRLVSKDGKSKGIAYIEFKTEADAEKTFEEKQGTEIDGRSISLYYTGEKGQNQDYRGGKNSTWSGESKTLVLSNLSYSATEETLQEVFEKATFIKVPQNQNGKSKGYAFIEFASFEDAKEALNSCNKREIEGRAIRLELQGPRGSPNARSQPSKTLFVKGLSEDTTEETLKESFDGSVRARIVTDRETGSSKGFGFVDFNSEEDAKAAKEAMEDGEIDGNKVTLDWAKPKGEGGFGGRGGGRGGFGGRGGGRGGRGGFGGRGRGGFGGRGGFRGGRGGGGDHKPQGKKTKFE

As to “F3 peptide-targeted liposomes (F3 peptide, SEQ ID NO:1, coupled through DSPE-PEG2k to pH-sensitive liposomes)”, the higher cellular association of the CD44+/ALDHhi population against the CD44-/ALDH-/low population (MDA-MB-435S) in assay [1] stood at 61%. The same substance displayed a higher cellular association of the CD44+/ALDHhi population against the CD44-/ALDH-/low population (MDA-MB-231) in assay [2] of 64%.
